Reference: PMC6885550
Where two headings read alike, the source gives them in different places.

How the values were obtained:
Assay in all cases: FRET or BRET
[1] = molecular target: YFP-DWORF (dwarf open reading frame) (UniProt P0DN84)
[2] = molecular target: YFP-DWORF (dwarf open reading frame) (UniProt P0DN84); remark: listed apart in the source
YFP-sarcolipin (SLN) [3] = molecular target: YFP-sarcolipin (SLN) (UniProt O00631)
YFP-sarcolipin (SLN) [4] = molecular target: YFP-sarcolipin (SLN) (UniProt O00631); remark: listed apart in the source

Sequence of YFP-sarcolipin (SLN) (from UniProt O00631 1-31) (natural protein) (O00631 whole entry): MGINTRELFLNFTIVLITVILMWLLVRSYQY

YFP-DWORF (dwarf open reading frame) (from UniProt P0DN84 1-35) (natural protein)
percent of donors in FRET (oligomer subpopulation) [1]: 23.4%
percent of donors in FRET (oligomer subpopulation) [2]: 20%

YFP-sarcolipin (SLN) (from UniProt O00631 1-31) (natural protein)
stoichiometry N (YFP-sarcolipin (SLN) [3]): 2
stoichiometry N (YFP-sarcolipin (SLN) [4]): > 2
